Measurements taken from publication PMC7990499 (eLife, 2021).

Target: T1, fluorescently tagged eIF2Bβδγε tetramer (eIF2Bβδγε-F) (human, UniProt P49770 2-351; Q9UI10 1-523; Q9NR50 1-452; Q13144 1-721)
T1 construct: eIF2Bβ (eIF2B subunit beta), human; eIF2Bδ (eIF2B subunit delta), human; eIF2Bγ (eIF2B subunit gamma), human; eIF2Bε (eIF2B subunit epsilon), human; also called eIF2Bβγδε-F; tagged tetramers; source: E. coli, co-expression of pMS029 and pJT074, purified as previously described (Tsai et al., 2018); not shown: mNeonGreen with (GS)5 linker, C-terminal, kept; mScarlet-i with (GS)5 linker, C-terminal, …
Assay: FRET or BRET; in vitro equilibrium FRET (E592/E516), 50 nM eIF2Bβδγε-F with a titration of eIF2Bα2, 1 hr, room temperature, 20 mM HEPES-KOH pH 7.5, 100 mM KCl, 5 mM MgCl2, 1 mM TCEP, 0.5% DMSO
Conditions: both partners purified

T1 sequence (P49770 2-351, stated change not applied, chain 1 of 4): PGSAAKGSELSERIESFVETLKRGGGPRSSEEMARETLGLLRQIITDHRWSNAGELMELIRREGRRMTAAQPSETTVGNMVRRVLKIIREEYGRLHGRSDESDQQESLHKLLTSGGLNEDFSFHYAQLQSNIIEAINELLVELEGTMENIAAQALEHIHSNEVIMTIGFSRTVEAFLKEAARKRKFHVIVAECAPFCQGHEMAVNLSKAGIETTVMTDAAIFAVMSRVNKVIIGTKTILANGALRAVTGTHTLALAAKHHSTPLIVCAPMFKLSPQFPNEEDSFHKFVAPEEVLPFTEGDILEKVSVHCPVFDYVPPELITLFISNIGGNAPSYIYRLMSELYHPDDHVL
T1 sequence (Q9UI10 whole entry, stated change not applied, chain 2 of 4): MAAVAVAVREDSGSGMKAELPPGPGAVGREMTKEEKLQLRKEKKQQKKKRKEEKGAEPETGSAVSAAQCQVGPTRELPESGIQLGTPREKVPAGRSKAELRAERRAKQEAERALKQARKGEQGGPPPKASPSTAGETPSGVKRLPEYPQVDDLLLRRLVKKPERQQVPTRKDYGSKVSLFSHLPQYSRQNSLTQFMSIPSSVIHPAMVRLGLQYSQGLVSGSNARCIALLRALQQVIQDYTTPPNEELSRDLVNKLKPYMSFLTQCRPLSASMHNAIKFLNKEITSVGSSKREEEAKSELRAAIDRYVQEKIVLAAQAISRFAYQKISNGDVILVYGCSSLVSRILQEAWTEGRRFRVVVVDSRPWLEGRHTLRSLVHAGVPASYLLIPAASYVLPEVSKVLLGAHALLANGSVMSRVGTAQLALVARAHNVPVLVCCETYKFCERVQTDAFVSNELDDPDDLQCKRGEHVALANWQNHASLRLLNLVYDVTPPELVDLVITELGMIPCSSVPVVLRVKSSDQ
T1 sequence (Q9NR50 whole entry, stated change not applied, chain 3 of 4): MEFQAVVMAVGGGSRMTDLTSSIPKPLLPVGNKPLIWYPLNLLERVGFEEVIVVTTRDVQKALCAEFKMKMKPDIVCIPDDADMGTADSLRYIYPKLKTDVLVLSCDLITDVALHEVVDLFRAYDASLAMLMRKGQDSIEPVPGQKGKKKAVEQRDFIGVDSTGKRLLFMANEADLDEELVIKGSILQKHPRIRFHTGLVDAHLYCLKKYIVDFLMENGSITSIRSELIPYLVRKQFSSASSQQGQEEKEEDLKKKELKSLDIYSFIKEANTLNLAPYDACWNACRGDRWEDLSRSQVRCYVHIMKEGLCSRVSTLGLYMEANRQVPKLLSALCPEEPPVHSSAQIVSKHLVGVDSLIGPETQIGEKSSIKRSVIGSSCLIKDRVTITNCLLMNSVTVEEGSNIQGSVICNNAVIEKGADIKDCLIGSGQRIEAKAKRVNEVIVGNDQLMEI
T1 sequence (Q13144 whole entry, stated change not applied, chain 4 of 4): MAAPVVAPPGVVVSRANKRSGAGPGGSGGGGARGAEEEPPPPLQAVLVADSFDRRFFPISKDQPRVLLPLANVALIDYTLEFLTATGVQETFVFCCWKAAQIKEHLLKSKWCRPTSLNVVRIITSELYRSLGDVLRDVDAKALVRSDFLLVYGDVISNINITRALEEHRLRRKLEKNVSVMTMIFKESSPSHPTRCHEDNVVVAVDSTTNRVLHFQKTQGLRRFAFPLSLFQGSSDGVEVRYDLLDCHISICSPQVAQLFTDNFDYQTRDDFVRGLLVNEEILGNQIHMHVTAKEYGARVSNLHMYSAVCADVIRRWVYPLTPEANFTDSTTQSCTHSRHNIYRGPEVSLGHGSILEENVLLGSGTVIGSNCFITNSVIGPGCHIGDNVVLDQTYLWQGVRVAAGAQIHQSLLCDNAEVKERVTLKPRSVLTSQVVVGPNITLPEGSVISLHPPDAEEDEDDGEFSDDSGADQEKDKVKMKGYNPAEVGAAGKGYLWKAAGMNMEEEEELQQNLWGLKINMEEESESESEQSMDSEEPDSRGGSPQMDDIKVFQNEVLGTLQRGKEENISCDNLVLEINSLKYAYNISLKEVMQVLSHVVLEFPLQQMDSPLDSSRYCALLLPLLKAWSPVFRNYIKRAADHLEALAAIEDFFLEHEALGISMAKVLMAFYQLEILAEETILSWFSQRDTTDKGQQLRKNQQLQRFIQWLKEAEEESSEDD

EC50: 20 nM
B1: eIF2Bα homodimer (eIF2Bα2) (natural protein, human)
chain: MDDKELIEYFKSQMKEDPDMASAVAAIRTLLEFLKRDKGETIQGLRANLTSAIETLCGVDSSVAVSSGGELFLRFISLASLEYSDYSKCKKIMIERGELFLRRISLSRNKIADLCHTFIKDGATILTHAYSRVVLRVLEAAVAAKKRFSVYVTESQPDLSGKKMAKALCHLNVPVTVVLDAAVGYIMEKADLVIVGAEGVVENGGIINKIGTNQMAVCAKAQNKPFYVVAESFKFVRLFPLNQQDVPDKFKYKADTLKVAQTGQDLKEEHPWVDYTAPSLITLLFTDLGVLTPSAVSDELIKLYL
notes: eIF2Bα (eIF2B subunit alpha), human; also called eIFBα2; eIF2Bα homodimers; source: E. coli, expressed separately (pJT075 or pMS027), purified as previously described (Tsai et al., 2018)
